Test: soluble on expression in E. coli; label from the status in PepcDB or PDB records

Sequence | soluble on expression in E. coli
MRDLFDEVAGKSPLDPNEAVRRTSRAQLPKRFYTEAGVAEENGGFAVRLDGRAVKTPSRNALAAPDRALAEAIAAEWQAQGETIDPSTMPLTRLANSVIDGVAGRVEAVTDDIAKYFGSDLLFYRAEHPEELIAREGAHWDPVLFWAKDALGAHFILAQGIVHVGQPETALAAARAALPADPWLLGALHVVTTITGSALLALALAHGRLEADQVWAAAHVDEDWNIEQWGLDEEAAARRAAKQAEFAAAAQVIAALGSRRSAAALEHHHHHH | not soluble
MRDPLCDESYLLKTIESNRKFISKRKEKIIGLKADIENGIQRYPRDNQSIIYITFSQMFMYGMNMLLAKYSLGNHPDTMIDDYLDNITYLENCGEEEAGYINLLWMVGLGILLEMDKEVLKRLARVIERQRIEDALMDFLLKACDIGWNHSTTKYEKKNPYEKTVEIIKIALHDKDKEAASKRLEKYMEKEWFKGHYDFGWRNAHKEPGYYGFWSFDTAALAKILGLDDSALKDNNHYPYDLAHYKNGMTFDLSWYSEPREEEVREETVVYGIPGNPLLERIIPGRFHSFVNEIINDYKTLPDEEFWKKYNLKEIWFDVEEYKEDNKDKNLLGTIIVFMLVDKDYILQLDYKEELIDYIENIHNYWPKEEVKLISFELDNDQQYYAYVPKDAEAGSLYEVKVTEVEKIEEV | not soluble
MRDTMEILRTENIVKYFGEFKALDGVSISVNKGDVTLIIGPNGSGKSTLINVITGFLKADEGRVYFENKDITNKEPAELYHYGIVRTFQTPQPLKEMTVLENLLIGEINPGESPLNSLFYKKWIPKEEEMVEKAFKILEFLKLSHLYDRKAGELSGGQMKLVEIGRALMTNPKMIVMDQPIAGVAPGLAHDIFNHVLELKAKGITFLIIEHRLDIVLNYIDHLYVMFNGQIIAEGRGEEEIKNVLSDPKVVEIYIGE | soluble
MREIPLVSVALATYNGERYLRRQLDSVLAQTYRNIEIVVSDDCSRDGTVAILEEYRRAHGITFRVNERNLGFVRNFERALAGCRGEFIALSDQDDIWLPEKIETLVREIGPHSLIYTDALLIDGDDQPLPGSLVEVSGVRPVSGTCFEYFVCNNCVTGCTAMLRRDLLATALPIPEAETYHDWWLAVAASRRNGVVYHAAKLTEYRQHAHNYTGANVRAGLPARIAAHLMGKTAAEKRGYYELLANRARRYRAMADRLNLTPAERSFLEEIGEYAESLLSGGNRMKTFALALKYRETLFPAAGRWEKLLFVFSKLIAARAILEHHHHHH | soluble
MRESHNVLPPVAPVRPITRTHHGIDFVDNYEWLRDKENPETIQYLEAENAFVEQQTAHLSQLKDNIYHEIKSRVKETDMSVPQRAGDFWYYGRSVEGKSYGYSCRIPVSEGADAWVPPTIPEREPVAGEQIILDANELAEGHEFFALGASTVTTSGRYLAYSVDTEGDERFTLRVKDLATGEHLADEIPDVFYGATWAGEEYLFYQRVDAAWRPDSVWRHKIGTDPATDVQVFHEADERFNTGVGATRSERFLMIESASKITSEIWVLDLDNPTGDFRCVLPRQAGVEYDIDHAVVAGRDTWIVTHNAAGPNFEVGWTPVTDEEISLDSLEVLVPHRDEVRIEGVDTYRDHIVLAYRSGAIGRAAVMQLNADGFGTFEEITFDEELYTIGVGGHPEWDTPVVRMVYVSFTQPSQVFDYWIADGRRTLLKQQEVVGGYNADDYTASRLWVEAHDGVRIPVSLIHRSDLDLSKPNPTLLYGYGSYESSIDPGFSIARLSLMDRGMVFAIAHVRGGGEMGRGWYDTGKTVTKKNTFTDFIAVADHLIEHGVTTSEMLVAEGGSAGGMLMGAVANMAGDRFKAIEAVVPFVDPLTSMLMPELPLTVTEWDEWGDPLHDVDVYNYMASYAPYENIEAKAYPNILAVTSLNDTRVLYVEPAKWIAQLRATATGGQFLLKTEMSAGHGGVSGRYEKWKQTAFEYAWLCHQATGKES | not soluble
MREYKVVVLGSGGVGKSALTVQFVTGSFIEKYDPTIEDFYRKEIEVDSSPSVLEILDTAGTEQFASMRDLYIKNGQGFILVYSLVNQQSFQDIKPMRDQIIRVKRYERVPMILVGNKVDLEGEREVSYGEGKALAEEWSCPFMETSAKNKASVDELFAEIVRQMNYAAQPNGDEGCCSACVIL | soluble
MRFFSLIKLPVVLVLAGLLSACGFHLRGEYSVPEELHTMSFSSYDEYSKLTRYVRSQLQLNKVDLVQPSSSVPNLHLIKATMDERTLSLYQNSRAAEKELTYVVQYRVTIPGFGSKNFTTTVNRNYLDNPLTALAKSVERDVIEDEMRQQAAKQMMRQLGRIRAEYEAGQIAAPTEKTNSLEHHHHHH | not soluble
MRFKVSKLMAYILRHSPWEFGLEPDEEGFVSIEELVNAVRKVYPWVTEEYIREIVERDEKGRYEIRGNKIRARYGHSYPVILRHEEDKESKVLYHGTVRRNLKGIMREGIKPMKRQYVHLSINYEDAYNTGRRHGEDVVVLIIDAECLRNKGYKILKAGKKVRIVKHVPVDCISGILLEHHHHHH | not soluble
MRGFSGQPLSDDDNYRIEKTQRNTIPERLHFSRERNMPIASIFGTRGYFVFSSEQSYDKFKQTNFNISTLDADGVGVPLFHIVQSYNVIGKITRSSPDFYIYKYVLQGVQDPPLYSDCKVICQDKVFRLCKILYCEIYAHQGFFETKYDFFYPSKTQPVKKYQIIKQSNMRDLYSTLDGMRFRWHVKFYSDHFRLMFLDEDRLNYSNSNQKERQKPDQGKSKAPDFVIGHYTRTFSDILPRSTSKCSNLIIGEHSKPDSLGITTVPDLTQEFACQGALIHYLLHIERERK | soluble
MRGHHHHHHHGSMTIEFVGVEKIYPGGARSVRGVSFQIREGEMVGLLGPSGSGKTTILRLIAGLERPTKGDVWIGGKRVTDLPPQKRNVGLVFQNYALFQHMTVYDNVSFGLREKRVPKDEMDARVRELLRFMRLESYANRFPHELSGGQQQRVALARALAPRPQVLLFDEPFAAIDTQIRRELRTFVRQVHDEMGVTSVFVTHDQEEALEVADRVLVLHEGNVEQFGTPEEVYEKPGTLFVASFIGESNVWTRAVQNGRIEVAGAALPVDPAVSEGSEVAVVVRPKDVELQPASEREAHAQVVRSAFKGSYSACWIRTKDGEVWEVHVPSADRHRWSPGAWVHMNVTRWFIFPR | soluble
MRGMAANQGERIRRRLSTGERREQLLSVGARLFSESPYDEVWIEQVAEIAGVSRGLLYHYFPNKRDFFAAVVERESERMLRMTAAVPGVPVREQLTAGLDAYLEYVRAHAHGYRAFHRADAAGDRAVRRVYQKALAAQERQILAALAADPEFGPAFEERGDVRLAVRGWLAFTTAVCLEWLRDPEPAREQVRDLCARALLGAVAP | not soluble
MRGSAFNGKWETESQEGYEPFCKLIGIPDDVIAKGRDFKLVTEIVQNGDDFTWTQYYPNNHVVTNKFIVGKESDMETVGGKKFKGIVSMEGGKLTISFPKYQQTTEISGGKLVETSTASGAQGTAVLVRTSKKVLVPR | soluble
MRGSHHHHHHGMASMTGGQQMGRDLYDDDDKDHPFTEGRSWPSAPDDSKAQAHRIHIDPEIQDGSPTTSRRPSGTGTGPEDGRPSLGSPYGKPPCFPVPHNGSSEATLPAQMSTLHVSPPPSADPAEASRGAGSRVDLGSEVYRMLREPAEPVAAEPKQSGSFRYLQGMLEAGEGGD | soluble
MRGSHHHHHHGSIWEWKEAHFQDAFSSFQAMYAKSYATEEEKQRRYAIFKNNLVYIHTHNQQGYSYSLKMNHFGDLSRDEFRRKYLGFKKSRNLKSHHLGVATELL | soluble
MRGSHHHHHHTDPALRANKVAQYYRELVASLSERLRNGERDIDALVEQARERVIKTGELTRTEVDELTRAVRRDLEEFAMSYEESLKEESDSVFMRVIKESLWQELADITDKTQLEWREVFQDLNHHGVYHSGEVVGLGNLVCEKCHFHLPIYTPEVLTLCPKCGHDQFQRRPFEPGLCGR | soluble
MRGSHHHHHHTDPALRANSLFASTARGLEELLKTELENLGAVECQVVQGGVHFKGDTRLVYQSLMWSRLASRIMLPLGECKVYSDLDLYLGVQAINWTEMFNPGATFAVHFSGLNDTIRNSQYGAMKVKDAIVDAFTRKNLPRPNVDRDAPDIRVNVWLHKETASIALDLSGDGLHLRGYRDRAGIAPIKETLAAAIVMRSGWQPGTPLLDPMCGSGTLLIEAAMLATDRAPGLHRGRWGFSGWAQHDEAIWQEVKAEAQTRARKGLAEYSSHFYGSDSDARVIQRARTNARLAGIGELITFEVKDVAQLTNPLPKGPYGTVLSNPPYGERLDSEPALIALHSLLGRIMKNQFGGWNLSLFSASPDLLSCLQLRADKQYKAKNGPLDCVQKNYHVAESTPDSKPAMVAEDYTNRLRKNLKKFEKWARQEGIECYRLYDADLPEYNVAVDRYADWVVVQEYAPPKTIDAHKARQRLFDIIAATISVLGIAPNKLVLKTRERQKGKNQYQKLGEKGEFLEVTEYNAHLWVNLTDYLDTGLFLDHRIARRMLGQMSKGKDFLNLFSYTGSATVHAGLGGARSTTTVDMSRTYLEWAERNLRLNGLTGRAHRLIQADCLAWLREANEQFDLIFIDPPTFSNSKRMEDAFDVQRDHLALMKDLKRLLRAGGTIMFSNNKRGFRMDLDGLAKLGLKAQEITQKTLSQDFARNRQIHNCWLITAAGLCGR | soluble
MRGSHHHHHHTDPALRAQTQVLFEHPLNEKMRTWLRIEFLIQQLTVNLPIVDHAGALHFFRNVSELLDVFERGEVRTELLKELDRQQRKLQTWIGVPGVDQSRIEALIQQLKAAGSVLISAPRIGQFLREDRLIALVRQRLSIPGGCCSFDLPTLHIWLHLPQAQRDSQVETWIASLNPLTQALTMVLDLIRQSAPFRKQTSLNGFYQDNGGDADLLRLNLSLDSQLYPQISGHKSRFAIRFMPLDTENGQVPERLDFELACCGLCGR | soluble
MRIAIDFDGTIVEHRYPRIGKEIPFAIATLKQLQTERHLLVLWTVREGKLLDEAVDFCRKRGLEFYAVNANHPEEEVRNDMTSPCRKVVADLYIDDLNVGKLPDWGAIYEMIHNRWSYERYLNEIHGFEKQKKISIWKRIFR | not soluble
MRIAIEKIIGLLKNQSSKESNVKIHRLAYITNSKFDGNNYIDRWCKIRNSHIGEYSYIGFGSDFNNVEVGRYCSISSDVKIGLGKHPTHFFSSSPIFYSNNNPFNIKQKFIDFNDQPSRTTIKNDVWIGANVIIMDGLTINTGAVIAAGSVVTKNVGAYEVVGGVPAKVIKKRFDNKTIEKLLESKWWEKTPDKLKGFSVEYLNKKDT | not soluble
MRIHAFHHLYQYRLERSTKPFLARGGKIKRCLYCLVELTHCLCAHQPDIESQVAVLLIVSENEVFKPSNTGRLIADTVKETYVYQWSRTEPNPEMLALLSNPAYYPVLIFPAETEEDKTRVLSPIPTEFAGKKPLLVLIDGSWREAKRIFRKSPYLASLPLVSVEPERLSQYIMRKSENEQHLATAEVASLVLDMFGDRHSASTLSLWFEAFKETYLTCKSRNKPSITKPALQRWIAHQQNANCLLEHHHHHH | not soluble
MRIHDIDPDNRPRERFLRSGKESLSPAELLALILRSGTAGLNIIDTCNKLISEHGLERLADLSIQELQKTPGIGEAKAMQIAAIFELQRRLHFARNMNLKVKGARDVFEYMKGRIPDETKEHLFVLFLSTKNQILRHETITIGTLTASLIHPREIFKAAIRESAHSIILVHNHPSGDVQPSNADKQVTSILKKAGDLLQIELLDHVIVGNNDWFSFRDHALL | not soluble
MRIRIAHSPDSDDAFMFYPLVKGLIDTEGLEIEHVLADIETLNREALKGTYEVSAISFHAYPYVADKYAVLPSGGSIGEGYGPIVVAREELGTLKGKKIAVPGELTTAFLTLKLYEPDFEHVVIPFDRIIQAVLEGKVDAGLVIHEGQLSYKDYGLKKIVDLGEWWKEKYGLPLPLGCNVVRKDLGREVVKKIERLMRESVEYALKERKRALEYAINYARDLSEDLERTQKFVSMYVNERTVDYGEDGREAVRLLLRLGKERGIIKAEIPEKIFSDELF | soluble
